{"source": "paper PMC3068300", "about": "(Proteins, 2010)", "proteins": {"B1": {"name": "Mycobacterium tuberculosis Rv2704 (natural protein)", "chain": "ASRTMVSSGSEFESAVGYSRAVRIGPLVVVAGTTGSGDDIAAQTRDALRRIEIALGQAGATLADVVRTRIYVTDISRWREVGEVHAQAFGKIRPVTSMVEVTALIAPGLLVEIEADAYVGSAVADRNSGAGPKDPSPAGG"}}, "biological_target": "the molecule itself", "assay": "SEC", "data": [{"protein": "B1", "values": [{"measurement": "stoichiometry N", "result": 3}]}]}
